Structures can show the parent of a compound that is named as a salt.
Assays:
[1] = biological target: T1, MMOR (Methylosinus sporium, UniProt Q27RN2, Y93A); test: UV-visible spectrum of purified protein, cofactor content; settings: FAD as purified, calibrated for [2Fe-2S] absorption; FAD/NADH-binding domain; stoichiometry, not an affinity; extra FAD said to be non-specific
T1 construct: gene mmoC; full-length reductase (39 kDa), recombinant in E. coli BL21(DE3) from pET30a(+); ferredoxin domain = residues 1-98
T1 sequence (Q27RN2 entry or part of it Y93A): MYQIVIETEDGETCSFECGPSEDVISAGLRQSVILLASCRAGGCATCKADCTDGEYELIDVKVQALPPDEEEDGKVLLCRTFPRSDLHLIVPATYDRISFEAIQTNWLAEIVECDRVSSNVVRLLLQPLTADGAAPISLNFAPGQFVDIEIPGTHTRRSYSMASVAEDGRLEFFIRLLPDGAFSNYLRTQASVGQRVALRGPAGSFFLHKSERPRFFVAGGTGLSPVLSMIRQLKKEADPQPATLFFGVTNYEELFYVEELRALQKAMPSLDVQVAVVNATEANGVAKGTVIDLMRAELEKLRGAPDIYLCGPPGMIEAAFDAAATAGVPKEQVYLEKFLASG

[2] = biological target: T2, MMOR (Methylosinus sporium, UniProt Q27RN2, Y95A); test: as above; settings: FAD as purified, calibrated for [2Fe-2S] absorption; FAD/NADH-binding domain
T2 construct: gene mmoC; full-length reductase (39 kDa), recombinant in E. coli BL21(DE3) from pET30a(+); ferredoxin domain = residues 1-98
T2 sequence (Q27RN2 entry or part of it Y95A): as the sequence (Q27RN2 entry or part of it Y93A) above, with A93Y, Y95A counted along it

[3] = biological target: T3, sMMO (MMOH + MMOB + MMOR) (Methylosinus sporium, UniProt Q27RN2, Y93A); test: NADH consumption at […] nm; assay type: biochemical; settings: turnover; propylene and O2 as co-substrates; 1 uM MMOH, 2 equiv. MMOB, 0.5 or 1.0 equiv. MMOR; 25 mM phosphate, 50 mM NaCl, pH 7.0
T3 construct: gene mmoC; recombinant MMOB and MMOR (39 kDa) from E. coli; with Methane monooxygenase component A alpha chain; Methane monooxygenase component A beta chain; Methane monooxygenase component A gamma chain; Methane monooxygenase regulatory protein B
T3 sequence (Q27RN2 entry or part of it Y93A): as the sequence (Q27RN2 entry or part of it Y93A) above
T3 sequence (Q27RN4 entry or part of it, stated change not applied, further chain): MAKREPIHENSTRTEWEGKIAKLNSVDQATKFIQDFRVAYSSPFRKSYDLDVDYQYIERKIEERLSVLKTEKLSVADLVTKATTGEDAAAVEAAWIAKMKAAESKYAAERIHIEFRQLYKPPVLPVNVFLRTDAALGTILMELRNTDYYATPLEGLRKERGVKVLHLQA
T3 sequence (Q27RN6 entry or part of it, stated change not applied, further chain): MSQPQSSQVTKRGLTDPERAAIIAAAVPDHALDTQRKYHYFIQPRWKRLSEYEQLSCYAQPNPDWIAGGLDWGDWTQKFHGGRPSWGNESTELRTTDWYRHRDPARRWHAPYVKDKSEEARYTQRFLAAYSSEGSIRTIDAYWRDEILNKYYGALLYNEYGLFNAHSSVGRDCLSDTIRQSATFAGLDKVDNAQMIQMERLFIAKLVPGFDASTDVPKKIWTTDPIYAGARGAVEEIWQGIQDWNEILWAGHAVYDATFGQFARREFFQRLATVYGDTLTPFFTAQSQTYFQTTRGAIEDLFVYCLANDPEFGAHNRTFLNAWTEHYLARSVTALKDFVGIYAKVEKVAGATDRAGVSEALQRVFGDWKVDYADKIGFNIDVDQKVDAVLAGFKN

[4] = biological target: Hydroxylase (MMOH) of soluble methane monooxygenase (sMMO) from Methylosinus sporium 5 (Methylosinus sporium 5); test: other fluorescence titration; tryptophan quenching (Ex 282 nm, Em 336 nm); MMOH 0.32 uM in the cuvette, MMORs added from 0 to 110 equivalents; 25 mM MOPS, 50 mM NaCl, 1 mM DTT, pH 6.5; fitted with a 1:2 binding model

Molecule	FAD/protein [1] [FAD/protein]	FADs per purified reductase [2]	NADH consumption at 340 nm [3]	Kd1 (first site, 1:2 binding model) [4] [µM]	Kd2 (second site, 1:2 binding model) [4] [µM]
Cc1cc2nc3c(=O)[nH]c(=O)nc-3n(C[C@H](O)[C@H](O)[C@H](O)COP(=O)(O)OP(=O)(O)OC[C@H]3O[C@@H](n4cnc5c(N)ncnc54)[C@H](O)[C@@H]3O)c2cc1C [flavin adenine dinucleotide]	2.0	two irons and two FADs per purified reductase	–	–	–
NC(=O)C1=CN([C@@H]2O[C@H](COP(=O)(O)OP(=O)(O)OC[C@H]3O[C@@H](n4cnc5c(N)ncnc54)[C@H](O)[C@@H]3O)[C@@H](O)[C@H]2O)C=CC1 [β-nicotinamide adenine dinucleotide, reduced disodium salt hydrate]	–	–	The activity of MMOR-Y93A was dramatically reduced	–	–
MMOR-Y93A (enzyme)	–	–	–	0.15	17
MMOR-Y95A (enzyme)	–	–	–	0.21	7.97

Reference: publication PMC9628860, “Electron Transfer to Hydroxylase through Component Interactions in Soluble Methane Monooxygenase” (Journal of Microbiology and Biotechnology, 2022)
